# T1: 6×His::UNC-84(912–1,111) (C. elegans, UniProt Q20745 912-1111)
# T1 sequence (looked up): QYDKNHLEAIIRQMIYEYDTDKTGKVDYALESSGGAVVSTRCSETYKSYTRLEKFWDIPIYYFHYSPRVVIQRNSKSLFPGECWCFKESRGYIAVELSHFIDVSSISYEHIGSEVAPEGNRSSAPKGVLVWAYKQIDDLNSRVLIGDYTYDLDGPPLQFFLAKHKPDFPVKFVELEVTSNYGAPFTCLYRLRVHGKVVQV
# Target: T1, 6×His::UNC-84(912–1,111)
# Assay: SEC
binder,measurement,value
"ASILVLGFLVFIAWMFININSALNAPPNA (domain or fragment, C. elegans, UniProt Q23529 749-777, looked up) [MBP::ZYG-12(749–777)]",binding result,binds

# Reference: article PMC5166498 (The Journal of Cell Biology, 2016)
